Results published in publication PMC8629192.

Target: SARS-CoV-2 spike protein (Wuhan-Hu-1), recombinant full-length spike with C-terminal histidine (SARS-CoV-2) (UniProt P0DTC2)
Experiment: ELISA

Sequence of LRRC15-Fc (Q8TF66 22-538): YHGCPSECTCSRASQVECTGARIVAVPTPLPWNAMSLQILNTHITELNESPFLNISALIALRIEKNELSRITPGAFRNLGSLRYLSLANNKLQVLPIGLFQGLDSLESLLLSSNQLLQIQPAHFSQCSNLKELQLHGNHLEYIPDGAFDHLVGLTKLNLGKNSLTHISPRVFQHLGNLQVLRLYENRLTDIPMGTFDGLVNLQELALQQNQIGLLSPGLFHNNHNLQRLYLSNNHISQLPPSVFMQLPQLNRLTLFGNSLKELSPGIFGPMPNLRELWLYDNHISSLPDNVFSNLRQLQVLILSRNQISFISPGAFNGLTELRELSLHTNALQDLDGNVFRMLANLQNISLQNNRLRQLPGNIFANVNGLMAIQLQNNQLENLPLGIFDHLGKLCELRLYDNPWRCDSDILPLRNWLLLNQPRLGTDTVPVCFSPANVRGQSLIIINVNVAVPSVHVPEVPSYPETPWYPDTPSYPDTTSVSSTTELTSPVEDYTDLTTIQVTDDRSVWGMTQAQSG

LRRC15-Fc (from UniProt Q8TF66) (Fc fusion)
Kd: 109 nM
